# Assay results taken from US20240083999A1 (published 2024).
# B1: JYK-D12/JYK-D12 homodimer (VHH)
# chain: QVQLVESGGGLVQPGGSLGLSCAASGFTLAYYGIGWFRQAPGKEREGVACISSSDLSTYYADSVKGRFTISRDNAKDTVYLQMNSLKPEDTAVYYCAAGTWDLKFGYSRSNCVRSYEYDYWGQGTQVTVSSGGGGSGGGGSGGGGSQVQLVESGGGLVQPGGSLGLSCAASGFTLAYYGIGWFRQAPGKEREGVACISSSDLSTYYADSVKGRFTISRDNAKDTVYLQMNSLKPEDTAVYYCAAGTWDLKFGYSRSNCVRSYEYDYWGQGTQVTVSS
# B2: hIL-6-binding VHH JYK-F12 (Trx/JYK-F12/E) (VHH)
# VHH: QVQLAETGGGSVQAGGSLTLSCAASGRTFSSRAMGWFRQAPGKEREFVAVISWTGSPYYTDSVKGRFTISRDDAKNTVYLQMNSLKPEDTAVYYCAATSEHVMLVVTTRGGYDYWGQGTQVTVSS
# B3: hIL-6-binding VHH JYK-D12 (Trx/JYK-D12/E) (VHH)
# VHH: QLQLVESGGGLVQPGGSLGLSCAASGFTLAYYGIGWFRQAPGKEREGVACISSSDLSTYYADSVKGRFTISRDNAKDTVYLQMNSLKPEDTAVYYCAAGTWDLKFGYSRSNCVRSYEYDYWGQGTQVTVSS
# B4: hIL-6-binding VHH JYK-A9 (Trx/JYK-A9/E) (VHH)
# VHH: QVQLVESGGGLVQAGDSLTLSCAASGRPFSSFAMGWFRQAPGKEREFVAAITWSRGTTHYADSVKGRFTISGDNAKNTVFLQMNSLKPEDTAVYYCAAADGWKVVSTASPAYDYWGQGTQVTVSS
# B5: hIL-6-binding VHH JYK-H9 (Trx/JYK-H9/E) (VHH)
# VHH: QLQLVETGGGLVQPGGSLRLSCAASGFTLDYYAIGWFRQAPGKEREGVSCLSSSDRSTYYVDSVKGRFTISRDDDKNTAYLQMNSLKPEDTATYYCAAGTWDLKWGYNISACVGSYEYDYWGQGTQVTVSS
# B6: hIL-6-binding VHH JYK-A1 (Trx/JYK-A1/E) (VHH)
# VHH: QLQLAETGGGLVQPGGSLRLSCAASGFTLDYYAVGWFRQAPGKEREGISCISSSDLKTYYADSVKGRFTISRDYAKSTVSLQMNSLKPEDTGVYYCAAGTWDLKFGYNISACVGSYEYDYWDQGTQVTVSS
# Molecular target: T1, human interleukin 6 (hIL-6) (UniProt P05231 30-212)
# T1 sequence (P05231 30-212): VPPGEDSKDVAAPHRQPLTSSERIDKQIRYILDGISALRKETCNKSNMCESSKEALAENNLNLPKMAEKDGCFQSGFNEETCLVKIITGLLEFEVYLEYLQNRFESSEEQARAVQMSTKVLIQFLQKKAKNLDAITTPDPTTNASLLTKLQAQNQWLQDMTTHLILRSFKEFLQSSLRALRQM
# Test: ELISA
row,Binder,EC50
1,B1,0.0842 nM

# Molecular target: T1, human interleukin 6 (hIL-6)
# Test: ELISA
# Remark: another data set of the same source
row,Binder,EC50
1,B2,14.4 nM
2,B3,0.324 nM
3,B4,27.7 nM
4,B5,0.811 nM
5,B6,0.795 nM
